Test results: patent US20030044400A1, “Composition and method for treating cells” (priority 2001, published 2003)

What was measured:
LNCaP cells = assay: Fetuin-induced apoptosis, Hoechst staining confirmed by MTS assay; type: cell-based, Human
Procedure: (§1) The purified fetuin was tested on various cancer cell lines. […] The DNA condensation and breakage of nuclei which are the characteristics for apoptosis were observed by staining the cell with Hoechst dye at 0.1 ug/ml.
Fetuin purified by modified Spiro method was further incubated with Zinc Acetate or Barium Acetate (0.25M) at room temperature for 1 hr. Free ions were removed by repetitive concentration against 20 volumes of PBS three times. Fetuin, Zn-charged fetuin and Ba-charged fetuin (5 uM) and PBS were then separately incubated with LNCaP cells for 4 hr. Percent of cells under apoptosis was determined by Hoechst staining and confirmed by MTS assay. Each data represents the average of two assays. Zn-charged or Ba-charged fetuin may contain free Zn or Ba (about 30 uM). However, all the cell lines are not affected by Zn or Ba alone at all concentrations tested (up to 66 uM).
(§2) Various concentrations of Zn-charged fetuin prepared as described were incubated with cell lines for 6 hr. Percent of cell under apoptosis was determined by Hoechst staining and confirmed by MTS assay. The concentration of Zn-charged fetuin for the induction of 50% of cells under apoptosis (LD50) was determined. Each data represents the average of three assays.

[1] = test system: CCD 39 Lu (normal lung fibroblast); assay: as above; type: cell-based, Human
Procedure: as §1, §2

Hep G2 cells = assay: as above; type: cell-based, Human
Procedure: as §1, §2

MCF-7 cells = assay: as above; type: cell-based, Human
Procedure: as §1, §2

PC-3 cells = assay: as above; type: cell-based, Human
Procedure: as §1, §2

PC-12 cells = assay: Neurite outgrowth of PC-12 cells; type: cell-based; conditions: PC-12 cells in 0.5% serum+RPMI; 5uM Fetuin; over 2-3 days
Procedure: PC-12 cells were seeded in 10% heat-inactivated horse serum, 5% fetal bovine serum in RPMI 1640 medium for 1-2 days. The media were changed to 0.5% serum+RPMI overnight and treated with 5uM Fetuin.

PC-3 induced tumor = assay: Prostate tumor (PC-3) in immunodeficient mice; type: in vivo, immunodeficient mice (TACN: NH (S)—NuFDF homozygous males); conditions: for reduction of prostate tumor: immunodeficient mice, 5 mg/30 g body weight, 5 days consecutive ip injection, vs control
Procedure: Another set of experiments were designed using immunodeficient mice (TACN: NH (S)—NuFDF homozygous males 3-4 wks old). The 2×10^7 PC-3 cells were implanted and allowed to grow for 6 wks. The mice in the control group received 0.5 ml saline intraperitoneally for 5 days and in the treated group received 0.5 ml Fetuin for 5 days.
The mice divided into 5 each group in this study were TACN:NH (S)—NuFDF homozygous males 3-4 weeks old and weighed an average of 22 g at the start of the experiment and 30 g at the termination of the experiment six weeks later. The animals were induced to prostate tumor formation by inoculating 2×10^7 PC-3 cells in 0.1 ml PBS suspension on the upper half of the dorsal thorax of the mouse. The tumor will be allowed to grow for 6 weeks. The mice in the control group will receive 0.1 ml saline intraperitoneally for 5 days and the mice in the treated group will receive 0.02 ml, 0.1 ml and 0.2 ml of Fetuin 10 mg/ml per day for 5 days. Treatment will start the day after tumor inoculation. Tumor will be weighed at the end of the experiment when the mice will be sacrificed for subsequent histopathology. Animals will be monitored daily for signs of tumor and/or any toxic effects from the test material.

[2] = Determination of LD50 of Fetuin in Rats; type: in vivo, Sprague-Dawley albino rats
Procedure: The Sprague-Dawley albino rats weighed 170-210 g and were divided into 4 groups, each group including 5 males and 5 females. The control group received 1 ml of saline intraperitoneally for 5 days. The other three groups were given 8.35 mg, 25 mg and 250 mg per kg body wt. of Fetuin 0.1 g/ml. All volumes were made up to 1 ml with sterile pyrogene free saline. The observation period was a least 14 days. If a visible toxic reaction occurs the observation period may be increased until visible signs of toxicity disappear. If any deaths occur during this period, the animal will be immediately autopsied to determine cause of death. During the observation period a careful clinical examination is made each day. These observations include skin and fur, eyes and mucous membranes, respiratory system, circulatory system, autonomic and central nervous system, somatomator activity and behavior patterns. Particular attention will be directed to observation of tremors, convulsions, salivation, diarrhea, lethargy, sleep or coma. Individual weights of the animals are determined shortly before the test substance is administered, and weekly thereafter. Any weight changes are recorded. At the end of the test, the surviving animals are weighed and sacrificed. Prior to sacrifice, blood is drawn from each animal to determine the serum levels of fetuin. After sacrifice, a gross necropsy is done on all animals. Any gross pathological changes are recorded and pertinent tissues preserved in 10% formalin for subsequent histopathology. The observations recorded are tabulated to see if there is any correlation between mortality and/or symptoms and the dose. The LD50 for each sex is determined at 14 days, using the method of Litchfield and Wilcoxon. A dose mortality curve and slope is determined if data justify it. A table of body weight gains or loses is constructed. Necropsy finding is reported.

[3] = Zn-charged fetuin, 6 hr, average of three assays
[4] = purified fetuin, Hoechst dye 0.1 ug/ml
[5] = immunodeficient mice with PC-3, 0.5 ml Fetuin ip for 5 days, 9 mice
[6] = rats, 5 female, 8.35 mg/kg Fetuin
[7] = rats, 5 female, 8.35 mg/kg Fetuin ip
[8] = rats, 5 female, 25 mg/kg Fetuin
[9] = rats, 5 female, 25 mg/kg Fetuin ip
[10] = rats, 5 female, 250 mg/kg Fetuin
[11] = rats, 5 female, 250 mg/kg Fetuin ip
[12] = rats, 5 male, 8.35 mg/kg Fetuin
[13] = rats, 5 male, 8.35 mg/kg Fetuin ip
[14] = rats, 5 male, 25 mg/kg Fetuin ip
[15] = rats, 5 male, 250 mg/kg Fetuin ip

## Fetuin: Fetal bovine fetuin purified from fetal bovine serum by modified Spiro method; 60 Kd glycoprotein, homologue of alpha 2-HS glycoprotein
LNCaP cells; LNCaP, Zn-charged fetuin, 6 hr, concentration for 50% of cells under apoptosis, average of three assays
  LD50 of Fetuin-induced Apoptosis: 1 µM
LNCaP cells; LNCaP, purified fetuin, Hoechst dye 0.1 ug/ml
  induction of apoptosis: strongly induced apoptosis
LNCaP cells; Pederson Method (Sigma) vs modified Spiro method
  apoptotic activity by method of preparation: induced apoptosis
LNCaP cells; Substitution of Zinc by Barium
  apoptosis-inducing activity: completely abolished
LNCaP cells; fetal vs mature fetuins at the same concentration
  apoptosis-inducing activity in LNCaP cells: strongly induced apoptosis
[1]; CCD 39 Lu, Zn-charged fetuin, 6 hr, average of three assays
  LD50 of Fetuin-induced Apoptosis: >100 µM
[1]; CCD39Lu, purified fetuin, Hoechst dye 0.1 ug/ml
  induction of apoptosis: did not induce apoptosis
Hep G2 cells; Hep G2, Zn-charged fetuin, 6 hr, average of three assays
  LD50 of Fetuin-induced Apoptosis: 20 µM
Hep G2 cells; HepG2, purified fetuin, Hoechst dye 0.1 ug/ml
  induction of apoptosis: strongly induced apoptosis
MCF-7 cells; [3]
  LD50 of Fetuin-induced Apoptosis: 8 µM
MCF-7 cells; [4]
  induction of apoptosis: strongly induced apoptosis
PC-3 cells; [3]
  LD50 of Fetuin-induced Apoptosis: 1 µM
PC-3 cells; [4]
  induction of apoptosis: strongly induced apoptosis
PC-12 cells
  neurite outgrowth: neurite outgrowth was observed in many of the cells
PC-3 induced tumor; [5]
  Ave. Mouse Weight (gm): 30.6 gm
  Ave. Tumor Weight (gm): 0 gm
  Tumor Incidence (%): 0%
PC-3 induced tumor
  reduction of prostate tumor: up to 100%
PC-3 induced tumor; listed as Fetal fetuin
  reduction of prostate tumor: 100%
[2]; all of the rats, 8.35, 25 and 250 mg per kg
  necropsy: appeared to be normal
[2]; [6]
  Spleen Wt. (gm): 0.513 gm
  Thymus Wt. (gm): 0.481 gm
[2]; [7]
  Final Wt. (gm): 203.5 gm
  Initial Wt. (gm): 170.2 gm
  Wt. Gain Total (gm): 33.3 gm
[2]; [8]
  Spleen Wt. (gm): 0.714 gm
  Thymus Wt. (gm): 0.485 gm
[2]; [9]
  Final Wt. (gm): 218.3 gm
  Initial Wt. (gm): 190.3 gm
  Wt. Gain Total (gm): 28.0 gm
[2]; [10]
  Spleen Wt. (gm): 0.578 gm
  Thymus Wt. (gm): 0.619 gm
[2]; [11]
  Final Wt. (gm): 201.7 gm
  Initial Wt. (gm): 164.2 gm
  Wt. Gain Total (gm): 37.5 gm
[2]; [12]
  Spleen Wt. (gm): 0.745 gm
  Thymus Wt. (gm): 0.599 gm
[2]; [13]
  Final Wt. (gm): 283.7 gm
  Initial Wt. (gm): 233.5 gm
  Wt. Gain Total (gm): 50.2 gm
[2]; rats, 5 male, 25 mg/kg Fetuin
  Spleen Wt. (gm): 0.796 gm
  Thymus Wt. (gm): 0.525 gm
[2]; [14]
  Final Wt. (gm): 227.5 gm
  Initial Wt. (gm): 174.5 gm
  Wt. Gain Total (gm): 53.0 gm
[2]; rats, 5 male, 250 mg/kg Fetuin
  Spleen Wt. (gm): 0.777 gm
  Thymus Wt. (gm): 0.595 gm
[2]; [15]
  Final Wt. (gm): 253.3 gm
  Initial Wt. (gm): 186.5 gm
  Wt. Gain Total (gm): 66.8 gm
[2]; rats, 8.35, 25 and 250 mg per kg ip, observation at least 14 days
  mortality: no mortality
